# T1: KRAS G13D (G13D RAS; the same in KRAS, HRAS and NRAS) peptide on HLA-DQA1*05:01 / HLA-DQB1*03:01 (human)
# T1 peptide: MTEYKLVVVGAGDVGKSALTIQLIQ
# T2: KRAS wild type (WT 25-mer) peptide on HLA-DQA1*05:01 / HLA-DQB1*03:01 (human)
# T2 peptide: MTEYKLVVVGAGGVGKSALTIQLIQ
# Columns and labels:
# [1] = molecular target: T1, KRAS G13D (G13D RAS; the same in KRAS, …); assay: cytokine release
# [2] = molecular target: T2, KRAS wild type (WT 25-mer) peptide on …; assay: cytokine release
# [3] = molecular target: T1, KRAS G13D (G13D RAS; the same in KRAS, …); assay: activation reporter or marker
# [4] = molecular target: T2, KRAS wild type (WT 25-mer) peptide on …; assay: activation reporter or marker
binding result [1],binding result [2],binding result [3],binding result [4],Binder
recognises,no recognition,–,–,"4400 TCR-E (TCR, V domains shown) Valpha: DAKTTQPPSMDCAEGRAANLPCNHSTISGNEYVYWYRQIHSQGPQYIIHGLKNNETNEMASLIITEDRKSSTLILPHATLRDTAVYYCIVRVAKSGANNLFFGTGTRLTVIP Vbeta: EADIYQTPRYLVIGTGKKITLECSQTMGHDKMYWYQQDPGMELHLIHYSYGVNSTEKGDLSSESTVSRIRTEHFPLTLESARPSHTSQYLCASSGLTYTDTQYFGPGTRLTVL"
recognises,no recognition,–,–,"4400 TCR-A1 (TCR, V domains shown) Valpha: QKEVEQDPGPLSVPEGAIVSLNCTYSNSAFQYFMWYRQYSRKGPELLMYTYSSGNKEDGRFTAQVDKSSKYISLFIRDSQPSDSATYLCAMRANTDKLIFGTGTRLQVFP Vbeta: DVKVTQSSRYLVKRTGEKVFLECVQDMDHENMFWYRQDPGLGLRLIYFSYDVKMKEKGDIPEGYSVSREKKERFSLILESASTNQTSMYLCASRLGNTGELFFGEGSRLTVL"
recognises,no recognition,–,–,"4400 TCR-N (TCR, V domains shown) Valpha: GEDVEQSLFLSVREGDSSVINCTYTDSSSTYLYWYKQEPGAGLQLLTYIFSNMDMKQDQRLTVLLNKKDKHLSLRIADTQTGDSAIYFCAPGGYNKLIFGAGTRLAVHP Vbeta: DVKVTQSSRYLVKRTGEKVFLECVQDMDHENMFWYRQDPGLGLRLIYFSYDVKMKEKGDIPEGYSVSREKKERFSLILESASTNQTSMYLCASRIGNTGELFFGEGSRLTVL"
–,–,recognises,no recognition,"4400 TCR-A3 (TCR, V domains shown) Valpha: KTTQPNSMESNEEEPVHLPCNHSTISGTDYIHWYRQLPSQGPEYVIHGLTSNVNNRMASLAIAEDRKSSTLILHRATLRDAAVYYCILRAPSGTYKYIFGTGTRLKVLA Vbeta: DVKVTQSSRYLVKRTGEKVFLECVQDMDHENMFWYRQDPGLGLRLIYFSYDVKMKEKGDIPEGYSVSREKKERFSLILESASTNQTSMYLCASRQGNTGELFFGEGSRLTVL"
recognises,no recognition,–,–,"4400 TCR-J (TCR, V domains shown) Valpha: QKEVEQDPGPLSVPEGAIVSLNCTYSNSAFQYFMWYRQYSRKGPELLMYTYSSGNKEDGRFTAQVDKSSKYISLFIRDSQPSDSATYLCAMSYSGGGADGLTFGKGTHLIIQP Vbeta: DVKVTQSSRYLVKRTGEKVFLECVQDMDHENMFWYRQDPGLGLRLIYFSYDVKMKEKGDIPEGYSVSREKKERFSLILESASTNQTSMYLCASSQGNTGELFFGEGSRLTVL"
recognises,no recognition,–,–,"4400 TCR-A2 (TCR, V domains shown) Valpha: QKEVEQDPGPLSVPEGAIVSLNCTYSNSAFQYFMWYRQYSRKGPELLMYTYSSGNKEDGRFTAQVDKSSKYISLFIRDSQPSDSATYLCAMRANTDKLIFGTGTRLQVFP Vbeta: DVKVTQSSRYLVKRTGEKVFLECVQDMDHENMFWYRQDPGLGLRLIYFSYDVKMKEKGDIPEGYSVSREKKERFSLILESASTNQTSMYLCASRQGNTGELFFGEGSRLTVL"
–,–,recognises,no recognition,"4400 TCR-J2 (TCR, V domains shown) Valpha: NSVTQMEGPVTLSEEAFLTINCTYTATGYPSLFWYVQYPGEGLQLLLKATKADDKGSNKGFEATYRKETTSFHLEKGSVQVSDSAVYFCALRLSGAGSYQLTFGKGTKLSVIP Vbeta: DVKVTQSSRYLVKRTGEKVFLECVQDMDHENMFWYRQDPGLGLRLIYFSYDVKMKEKGDIPEGYSVSREKKERFSLILESASTNQTSMYLCASSQGNTGELFFGEGSRLTVL"
–,–,recognises,no recognition,"4400 TCR-N12 (TCR, V domains shown) Valpha: QKEVEQDPGPLSVPEGAIVSLNCTYSNSAFQYFMWYRQYSRKGPELLMYTYSSGNKEDGRFTAQVDKSSKYISLFIRDSQPSDSATYLCAMSYSGGGADGLTFGKGTHLIIQP Vbeta: DVKVTQSSRYLVKRTGEKVFLECVQDMDHENMFWYRQDPGLGLRLIYFSYDVKMKEKGDIPEGYSVSREKKERFSLILESASTNQTSMYLCASSTGNTGELFFGEGSRLTVL"
–,–,recognises,no recognition,"4400 TCR-N13 (TCR, V domains shown) Valpha: QKEVEQDPGPLSVPEGAIVSLNCTYSNSAFQYFMWYRQYSRKGPELLMYTYSSGNKEDGRFTAQVDKSSKYISLFIRDSQPSDSATYLCAMRANTDKLIFGTGTRLQVFP Vbeta: DVKVTQSSRYLVKRTGEKVFLECVQDMDHENMFWYRQDPGLGLRLIYFSYDVKMKEKGDIPEGYSVSREKKERFSLILESASTNQTSMYLCASRVGNTGELFFGEGSRLTVL"
–,–,recognises,no recognition,"4400 TCR-N4 (TCR, V domains shown) Valpha: QKITQTQPGMFVQEKEAVTLDCTYDTSDPSYGLFWYKQPSSGEMIFLIYQGSYDQQNATEGRYSLNFQKARKSANLVISASQLGDSAMYFCAMRERSGTASKLTFGTGTRLQVTL Vbeta: DVKVTQSSRYLVKRTGEKVFLECVQDMDHENMFWYRQDPGLGLRLIYFSYDVKMKEKGDIPEGYSVSREKKERFSLILESASTNQTSMYLCASSLGVGSNYGYTFGSGTRLTVV"
–,–,recognises,no recognition,"4400 TCR-C (TCR, V domains shown) Valpha: QKITQTQPGMFVQEKEAVTLDCTYDTSDPSYGLFWYKQPSSGEMIFLIYQGSYDQQNATEGRYSLNFQKARKSANLVISASQLGDSAMYFCAMRERTGTASKLTFGTGTRLQVTL Vbeta: DVKVTQSSRYLVKRTGEKVFLECVQDMDHENMFWYRQDPGLGLRLIYFSYDVKMKEKGDIPEGYSVSREKKERFSLILESASTNQTSMYLCASSPGTENSPLHFGNGTRLTVT"
–,–,recognises,no recognition,"4400 TCR-20 (TCR, V domains shown) Valpha: QKITQTQPGMFVQEKEAVTLDCTYDTSDPSYGLFWYKQPSSGEMIFLIYQGSYDQQNATEGRYSLNFQKARKSANLVISASQLGDSAMYFCAMRERSGGSYIPTFGRGTSLIVHP Vbeta: DVKVTQSSRYLVKRTGEKVFLECVQDMDHENMFWYRQDPGLGLRLIYFSYDVKMKEKGDIPEGYSVSREKKERFSLILESASTNQTSMYLCASSLGTFNQPQHFGDGTRLSIL"

# — US20230365649A1 (published 2023)
